{
  "source": "patent US20060058253",
  "about": "“Methods to reprogram splice site selection in pre-messenger rnas” (published 2006)",
  "conditions_in_all_cases": "tags: GST",
  "key": {"[1]": {"target": "T1, UP1 (shortened hnRNP A1), GST fusion (UniProt P09651 P09651:1-196)", "T1 sequence (P09651 1-196, one chain of several)": "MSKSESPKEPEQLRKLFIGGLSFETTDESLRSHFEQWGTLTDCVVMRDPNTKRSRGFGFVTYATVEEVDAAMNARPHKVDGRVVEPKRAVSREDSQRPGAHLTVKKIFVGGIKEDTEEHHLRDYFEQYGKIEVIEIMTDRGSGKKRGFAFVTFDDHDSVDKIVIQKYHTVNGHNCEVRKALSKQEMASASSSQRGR", "assay": "EMSA", "experimental": "(§1) A shortened version of recombinant hnRNP A1 (GST-UP1) was used for testing binding affinity. Each labeled oligo was incubated with increasing amounts of GST-UP1 (0.5 and 1 μg). The TS10 oligo is a telomeric DNA oligo of 60 nt containing nine high-affinity A1 binding sites. Complexes were fractionated in a 5% acrylamide gel. The position of the free oligos and complexes is shown. (C) Pre-mRNAs were incubated in a HeLa extract for 2 hours in the presence of increasing amounts of oligonucleotides (0.01, 0.02, 0.05, 0.1, 0.5 pmoles in 12.5 μl reaction). The RNA was extracted and fractionated on a denaturing 11% acrylamide gel. The position of the pre-mRNAs, splicing intermediates and products is indicated. (D) Based on the results obtained in panel C, the relative use of proximal and distal splicing was compiled, expressed as a ratio of percentages and plotted relative to the amount of oligo used. (E) Labeled pre-mRNAs were incubated as above in the presence of increasing amounts of oligonucleotides (0.01, 0.02, 0.05, 0.1, 0.5 pmoles in 12.5 μl reaction). The RNA was extracted and fractionated on a denaturing 11% acrylamide gel. The position of the pre-mRNAs, splicing intermediates and products is indicated. (F) Labeled pre-mRNAs were incubated with increasing amounts of oligonucleotides (0.01, 0.02, 0.05, 0.1, 0.5 pmoles in 12.5 μl reaction). […]"}, "[2]": {"target": "T1, UP1 (shortened hnRNP A1), GST fusion", "assay": "EMSA; best UP1 binder (printed X4-A1W)"}, "[3]": {"target": "T1, UP1 (shortened hnRNP A1), GST fusion", "assay": "EMSA; text prints X-M4A1W as non-binder, evidently X-M4A1M"}, "[4]": {"target": "T1, UP1 (shortened hnRNP A1), GST fusion", "assay": "EMSA; best binder; 0.5 and 1 ug GST-UP1", "experimental": "as §1"}, "[5]": {"target": "T1, UP1 (shortened hnRNP A1), GST fusion", "assay": "EMSA", "remark": "listed apart in the source"}},
  "data": [
    {"binder": "UACCACCGCCAAAGCCGCCU (ssRNA)", "note": "[C5-M4]", "values": [
      {"measurement": "binding result", "setting": "[1]", "value": "no binding"}
    ]},
    {"binder": "UAUGAUAGGGACUUAGGGUGGCCGCCGUUCUCCUGGAUCC (ssRNA, 2'-OMe)", "note": "[X-M4A1W]", "values": [
      {"measurement": "binding result", "setting": "[2]", "value": "binds"}
    ]},
    {"binder": "UAUGAUACGCACUUACGCUGGCCGCCGUUCUCCUGGAUCC (ssRNA, 2'-OMe)", "note": "[X-M4A1M]", "values": [
      {"measurement": "binding result", "setting": "[3]", "value": "no binding"}
    ]},
    {"binder": "UAUGAUAGGGACUUAGGGUGUACCACCGCCAAAGCCGCCU (ssRNA)", "note": "[C5-M4A1W]", "values": [
      {"measurement": "binding result", "setting": "[4]", "value": "binds"}
    ]},
    {"binder": "UAUGAUACGCACUUACGCUGUACCACCGCCAAAGCCGCCU (ssRNA)", "note": "[C5-M4A1M]", "values": [
      {"measurement": "binding result", "setting": "[1]", "value": "no binding"}
    ]},
    {"binder": "GCCGCCGUUCUCCUGGAUCC (ssRNA, 2'-OMe)", "note": "[X-M4]", "values": [
      {"measurement": "binding result", "setting": "[5]", "value": "no binding"}
    ]},
    {"binder": "UUCUUACCCAGCCGCCGUUC (ssRNA, 2'-OMe)", "note": "[X-5]", "values": [
      {"measurement": "binding result", "setting": "[5]", "value": "no binding"}
    ]}
  ]
}
